Assay results reported in ChEMBL document CHEMBL3758119, “Functionalized imidazolium and benzimidazolium salts as paraoxonase 1 inhibitors: Synthesis, characterization and molecular docking studies” (Bioorg Med Chem, 2016).

Substrate: CCCCn1cc[n+](Cc2cc(=O)oc3cc(C)cc(C)c23)c1
Settings: Homo sapiens
Description: Activity of human serum PON1 using paraoxon as substrate by Lineweaver-Burk plot analysis

B1: Serum paraoxonase/arylesterase 1 (Homo sapiens), P27169 (protein)
chain: MAKLIALTLLGMGLALFRNHQSSYQTRLNALREVQPVELPNCNLVKGIETGSEDLEILPNGLAFISSGLKYPGIKSFNPNSPGKILLMDLNEEDPTVLELGITGSKFDVSSFNPHGISTFTDEDNAMYLLVVNHPDAKSTVELFKFQEEEKSLLHLKTIRHKLLPNLNDIVAVGPEHFYGTNDHYFLDPYLQSWEMYLGLAWSYVVYYSPSEVRVVAEGFDFANGINISPDGKYVYIAELLAHKIHVYEKHANWTLTPLKSLDFNTLVDNISVDPETGDLWVGCHPNGMKIFFYDSENPPASEVLRIQNILTEEPKVTQVYAENGTVLQGSTVASVYKGKLLIGTVFHKALYCEL
For B1, the Km was 40.6 µM.
